Among the data in paper PMC7387808 (Cellular and Molecular Immunology, 2020) are Kd, koff and kon values, retold here.

The test concerns the target T1, TOM70 (full-length, recombinant, analyte of the BLI) (human, UniProt O94826 1-608).
T1 construct: also called Mitochondrial import receptor subunit TOM70
T1 sequence (looked up): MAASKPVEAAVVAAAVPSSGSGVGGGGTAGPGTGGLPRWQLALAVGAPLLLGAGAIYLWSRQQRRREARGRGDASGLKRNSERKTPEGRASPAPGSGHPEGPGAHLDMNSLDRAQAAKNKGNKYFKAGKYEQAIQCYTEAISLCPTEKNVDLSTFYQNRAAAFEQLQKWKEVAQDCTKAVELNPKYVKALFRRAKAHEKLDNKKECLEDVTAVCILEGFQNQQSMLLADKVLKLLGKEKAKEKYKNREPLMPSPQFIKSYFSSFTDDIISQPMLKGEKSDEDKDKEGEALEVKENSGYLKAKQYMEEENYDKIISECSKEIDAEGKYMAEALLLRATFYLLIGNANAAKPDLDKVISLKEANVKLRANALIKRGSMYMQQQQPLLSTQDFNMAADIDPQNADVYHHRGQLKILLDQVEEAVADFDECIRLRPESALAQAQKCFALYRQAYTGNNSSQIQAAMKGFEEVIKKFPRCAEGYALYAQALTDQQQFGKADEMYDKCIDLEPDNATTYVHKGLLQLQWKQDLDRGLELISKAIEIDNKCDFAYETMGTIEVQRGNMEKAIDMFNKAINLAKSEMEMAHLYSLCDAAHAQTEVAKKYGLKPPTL
Nature of the test: BLI; […]; kinetics ([…]) buffer 1x PBS pH 7.4, 0.1% BSA, 0.02% Tween-20; association 5 min, dissociation 5 min; […]; 1:1 global fit. The conditions noted are these: both partners purified. (In general: Biolayer interferometry detects binding as a change in optical thickness at a sensor tip.)

B1: SARS-CoV Orf9b, biotinylated (C-terminal Avi-His6) (natural protein)
chain: MDPNQTNVVPPALHLVDPQIQLTITRMEDAMGQGQNSADPKVYPIILRLGSQLSLSMARRNLDSLEARAFQSTPIVVQMTKLATTEELPDEFVVVTAK
notes: also called Biotinylated Orf9b
In the case of B1, the equilibrium dissociation constant (Kd) stood at 41.6 ± 1.01 nM, the koff amounted to 0.00244 s⁻¹ and the kon was found to be 58600 M⁻¹ s⁻¹.

A word on the Kd: it is the equilibrium constant for the complex coming apart. What is called koff is the first-order rate constant of dissociation. By kon is commonly meant a measure of how fast the partners come together.
